In US6835378B2, “Method and compositions for inhibiting thrombin-induced coagulation” (The Texas A&M University System University, priority 2001, dated 2004):

Test system: thrombin-induced fibrin clot formation
Experiment: Fg coagulation assay (fibrin clot inhibition)
Format: biochemical
Settings: 3.0 μM Fg, 0-6.0 μM protein, 1.0 NIH unit/ml thrombin, OD 405 nm
Method: Fg Coagulation Assay—150 μl of a 3.0 μM Fg solution was incubated with 10 μl of rSdrG(50-597) or BSA (1.0-6.0 μM) and 50 μl of thrombin (Sigma) (1.0 NIH unit/ml) in microtiter wells at room temperature. Clot formation was monitored by measuring the increase in optical density (OD) at 405 nm over time and expressed as Vmax (mOD/min). A plate reader (Thermomax microplate reader, SOFTmax software, Molecular Devices) was used to monitor OD. Using the kinetic mode with one wavelength (L1=405 nm), samples were read every 10 sec for 5 min. In this assay, 1.0 NIH unit/ml of thrombin incubated with 3.0 μM Fg produced a fibrin clot in 5 min at room temperature.
rSdrG(50-597) Inhibits Thrombin-Induced Fibrin Clot Formation—In the final stages of the blood coagulation cascade, thrombin cleaves Fg releasing the fibrinopeptides and producing fibrin monomers. These fibrin monomers then polymerize to form a fibrin clot (20). […] To test this hypothesis, we designed a fibrin clot inhibition assay in which 3.0 μM Fg, 0-6.0 μM rSdrG(50-597) and 1.0 NIH unit/ml of thrombin were incubated and the formation of a fibrin clot was monitored by measuring the increase in optical density at 405 nm.

B1: rSdrG(50-597): recombinant His-tagged A region (residues 50-597) of SdrG, a fibrinogen-binding MSCRAMM from S. epidermidis (protein)
chain: HHHHHHAEENTVQDVKDSNMDDELSDSNDQSSNEEKNDVINNSQSINTDDDNQIKKEETNSNDAIENRSKDITQSTTNVDENEATFLQKTPQDNTQLKEEVVKEPSSVESSNSSMDTAQQPSHTTINSEASIQTSDNEENSRVSDFANSKIIESNTESNKEENTIEQPNKVREDSITSQPSSYKNIDEKISNQDELLNLPINEYENKVRPLSTTSAQPSSKRVTVNQLAAEQGSNVNHLIKVTDQSITEGYDDSDGIIKAHDAENLIYDVTFEVDDKVKSGDTMTVNIDKNTVPSDLTDSFAIPKIKDNSGEIIATGTYDNTNKQITYTFTDYVDKYENIKAHLKLTSYIDKSKVPNNNTKLDVEYKTALSSVNKTITVEYQKPNENRTANLQSMFTNIDTKNHTVEQTIYINPLRYSAKETNVNISGNGDEGSTIIDDSTIIKVYKVGDNQNLPDSNRIYDYSEYEDVTNDDYAQLGNNNDVNINFGNIDSPYIIKVISKYDPNKDDYTTIQQTVTMQTTINEYTGEFRTASYDNTIAFSTSSGQGQGDLPPE
Q: For B1, which fibrin clot formation is on record?
A: inhibited fibrin clot formation in a concentration dependent manner

Q: And the fibrin clot formation (listed as SdrG)?
A: inhibit thrombin-induced fibrinogen coagulation
